For orientation: IC50 means the concentration that inhibits the measured activity by half. In general, EC50 refers to the midpoint of the concentration-response curve.

Starred links: 1 amine or outer side, 2 acyl side, 3 side chain; linkers in the order of their positions; H or OH if unused. Positions of bridges follow the written chain, without caps; N, C: chain ends. Non-standard residues stand in square brackets, D forms with d. Primed or numbered codes have the meaning given here. B5(4) = 2,2-bis(4-pentenyl)glycine = 2-amino-2-(pent-4-en-1-yl)hept-6-enoic acid (stitching residue), C=CCCCC(CCCC=C)(N[*:1])C(=O)[*:2]; PyrS2 = (S)-3-amino-1-((pent-4-en-1-yloxy)carbonyl)pyrrolidine-3-carboxylic acid, C=CCCCOC(=O)N1CC[C@@](N[*:1])(C(=O)[*:2])C1; PyrS3 = (S)-3-amino-1-((hex-5-en-1-yloxy)carbonyl)pyrrolidine-3-carboxylic acid, C=CCCCCOC(=O)N1CC[C@@](N[*:1])(C(=O)[*:2])C1; SeN = (S)-5-(((allyloxy)carbonyl)(methyl)amino)-2-amino-2-methylpentanoic acid, C=CCOC(=O)N(C)CCC[C@](C)(N[*:1])C(=O)[*:2]; B5(13) = 2-amino-2-(pent-4-en-1-yl)hept-6-enoic acid (two alkene chains), C=CCCCC(CCCC=C)(N[*:1])C(=O)[*:2]; B5(3) = 2,2-bis(4-pentenyl)glycine (stitching residue), C=CCCCC(CCCC=C)(N[*:1])C(=O)[*:2]; Ala(1H-tetrazol-5-yl) = N[C@@H](Cc1nnn[nH]1)C(=O)O; Phe(3-F) = N[C@@H](Cc1cccc(F)c1)C(=O)O; Bta = N[C@@H](Cc1csc2ccccc12)C(=O)O; αAllylPro = C=CC[C@@]1(C(=O)O)CCCN1; tBuAla = CC(C)(C)C[C@H](N)C(=O)O; 2Thi = N[C@@H](Cc1cccs1)C(=O)O; 3Thi = N[C@@H](Cc1ccsc1)C(=O)O; S8 = C=CCCCCCC[C@](C)(N)C(=O)O

For the first assay, the target named is full-length beta-Catenin (Uniprot ID P35222) (Homo sapiens (Human)) (UniProt P35222). The experiment in a line: fluorescence polarization competition; peptide titrated against 10 nM full-length beta-catenin + 10 nM 5FAM-TCF4(10-53) probe. (Polarisation of emitted light reports the rotation of a fluorescent probe.)
Target sequence in this assay (P35222 whole entry): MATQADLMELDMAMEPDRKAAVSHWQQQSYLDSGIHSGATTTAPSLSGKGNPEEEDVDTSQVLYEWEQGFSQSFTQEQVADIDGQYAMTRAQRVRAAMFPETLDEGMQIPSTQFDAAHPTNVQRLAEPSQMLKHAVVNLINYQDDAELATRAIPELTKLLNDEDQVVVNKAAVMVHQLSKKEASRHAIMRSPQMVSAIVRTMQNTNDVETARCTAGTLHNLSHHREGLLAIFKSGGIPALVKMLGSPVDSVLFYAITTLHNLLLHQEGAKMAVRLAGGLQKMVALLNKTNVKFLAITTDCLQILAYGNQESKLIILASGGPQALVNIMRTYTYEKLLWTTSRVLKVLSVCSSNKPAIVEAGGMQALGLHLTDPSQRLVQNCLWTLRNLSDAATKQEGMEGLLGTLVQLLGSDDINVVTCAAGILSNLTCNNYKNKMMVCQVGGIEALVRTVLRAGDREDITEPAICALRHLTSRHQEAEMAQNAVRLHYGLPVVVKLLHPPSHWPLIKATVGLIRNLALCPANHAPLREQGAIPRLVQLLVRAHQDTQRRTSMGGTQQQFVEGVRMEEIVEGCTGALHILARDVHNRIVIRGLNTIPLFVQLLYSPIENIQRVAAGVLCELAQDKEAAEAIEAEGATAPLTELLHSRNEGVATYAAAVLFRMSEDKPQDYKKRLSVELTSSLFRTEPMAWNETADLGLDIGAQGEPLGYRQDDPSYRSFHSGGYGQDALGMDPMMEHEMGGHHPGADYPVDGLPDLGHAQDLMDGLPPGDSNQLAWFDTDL
In the case of Ac-[αAllylPro]DA[B5(4)]DEAA[3Thi]Q[S8][Phe(3-F)][Bta]Q-NH2 (staple 1-4, 4-11) [I-429], the half-inhibitory concentration (IC50) turned out to be 0.146 µM.

For the molecule Ac-[αAllylPro][Ala(1H-tetrazol-5-yl)]A[B5(3)]DEAAFQ[S8]F[Bta]Q-NH2 (staple 1-4, 4-11; also: staple isomer composition, earlier eluting HPLC peak) [I-416], the IC50 was determined as 5 µM.

In the case of Ac-[αAllylPro]DA[B5(3)]D[Ala(1H-tetrazol-5-yl)]AAFQ[S8]F[Bta]Q-NH2 (staple 1-4, 4-11) [I-413], the half-inhibitory concentration (IC50) came out at 0.09 µM. With Ac-[αAllylPro]DA[B5(4)]DEAA[3Thi]Q[S8][Phe(3-F)][Bta]-NH2 (staple 1-4, 4-11) [I-431], the IC50 came to 1.32 µM. Ac-[αAllylPro]DA[B5(4)]DEAAFN[S8]F[Bta]-NH2 (staple 1-4, 4-11) [I-432]: the IC50 is 0.145 µM. Still for that read-out and setting: the value for Ac-[αAllylPro]DA[B5(4)]DEAA[3Thi]Q[S8][Phe(3-F)][Bta]H-NH2 (staple 1-4, 4-11) [I-430] was 0.154 µM; that for Ac-[αAllylPro]DA[B5(4)]DEAAFQ[S8][3Thi][Bta]Q-NH2 (staple 1-4, 4-11; also: staple isomer composition, later-eluting HPLC peak) [I-427] was 0.0385 µM. Still for that read-out and setting: the value for Ac-[αAllylPro]DA[B5(4)]DEAAFQ[S8][2Thi][Bta]Q-NH2 (staple 1-4, 4-11) [I-428] was 0.06 µM; that for Ac-[αAllylPro]DI[B5(3)]DEAA[2Thi]Q[S8][Phe(3-F)][Bta]Q-NH2 (staple 1-4, 4-11) [I-412] was 0.092 µM; that for Ac-[αAllylPro][Ala(1H-tetrazol-5-yl)]A[B5(3)]DEAAFQ[S8]F[Bta]Q-NH2 (staple 1-4, 4-11; also: staple isomer composition, later eluting HPLC peak) [I-417] was 5 µM.

The target is the same in another assay. As to the kind of experiment: fluorescence polarization competition; full-length beta-catenin, competitor 5FAM-TCF4(10-53) probe.
Target sequence in this assay (P35222 2-781 limits assumed): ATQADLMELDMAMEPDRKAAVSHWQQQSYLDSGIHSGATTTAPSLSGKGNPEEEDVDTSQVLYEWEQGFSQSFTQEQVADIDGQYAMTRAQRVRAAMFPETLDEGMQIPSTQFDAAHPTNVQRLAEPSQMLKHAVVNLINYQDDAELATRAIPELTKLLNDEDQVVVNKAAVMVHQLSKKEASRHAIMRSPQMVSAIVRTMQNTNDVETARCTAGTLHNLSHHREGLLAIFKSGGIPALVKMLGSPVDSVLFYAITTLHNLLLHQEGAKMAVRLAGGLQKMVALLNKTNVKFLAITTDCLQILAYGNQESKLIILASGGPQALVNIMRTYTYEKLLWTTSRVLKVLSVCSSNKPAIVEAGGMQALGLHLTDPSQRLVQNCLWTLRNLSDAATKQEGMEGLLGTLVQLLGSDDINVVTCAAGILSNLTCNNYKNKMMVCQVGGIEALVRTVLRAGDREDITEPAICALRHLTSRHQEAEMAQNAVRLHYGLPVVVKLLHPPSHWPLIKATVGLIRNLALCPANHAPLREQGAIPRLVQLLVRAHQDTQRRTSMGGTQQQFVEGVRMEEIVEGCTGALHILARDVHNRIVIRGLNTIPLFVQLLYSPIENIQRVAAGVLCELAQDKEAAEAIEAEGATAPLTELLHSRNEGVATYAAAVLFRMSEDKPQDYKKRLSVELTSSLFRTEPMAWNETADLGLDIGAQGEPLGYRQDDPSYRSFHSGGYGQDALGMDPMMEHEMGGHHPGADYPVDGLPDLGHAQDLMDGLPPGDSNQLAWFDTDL
For the molecule Ac-[αAllylPro]D[tBuAla][B5(13)]DDAAFN[SeN][3Thi][Bta]H-NH2 (staple 1-4, 4-11) [I-774], the EC50 stood at 0.038 µM.

Ac-[αAllylPro]D[tBuAla][B5(13)]DDAAFN[PyrS2][2Thi][Bta]H-NH2 (staple 1-4, 4-11) [I-779] showed an EC50 of 0.005 µM. Ac-[αAllylPro]D[tBuAla][B5(13)]DDAAFN[PyrS3][3Thi][Bta]H-NH2 (staple 1-4, 4-11) [I-776] came in with a half-maximal effective concentration (EC50) of 0.005 µM. For Ac-[αAllylPro]D[tBuAla][B5(13)]DDAAFN[SeN][3Thi][Bta]H-NH2 (staple 1-4, 4-11) [I-773], the EC50 was found to be 0.167 µM.

The target is the same in the next assay. The experiment in a line: fluorescence polarization competition; 10 nM full-length beta-catenin + 10 nM 5FAM-TCF4(10-53) probe, peptide titrated.
Target sequence in this assay (P35222 2-781 limits assumed): as above
Regarding Ac-[αAllylPro]DA[B5(4)]DEAA[3Thi]Q[S8][Phe(3-F)][Bta]Q-NH2 (staple 1-4, 4-11) [I-429], the EC50 worked out at 0.146 µM. For the molecule Ac-[αAllylPro][Ala(1H-tetrazol-5-yl)]A[B5(3)]DEAAFQ[S8]F[Bta]Q-NH2 (staple 1-4, 4-11; also: staple isomer composition, earlier eluting HPLC peak) [I-416], the concentration for a half-maximal effect (EC50) was 5 µM. Same read-out and setting: the value for Ac-[αAllylPro]DA[B5(3)]D[Ala(1H-tetrazol-5-yl)]AAFQ[S8]F[Bta]Q-NH2 (staple 1-4, 4-11) [I-413] was 0.09 µM; that for Ac-[αAllylPro]DA[B5(4)]DEAA[3Thi]Q[S8][Phe(3-F)][Bta]-NH2 (staple 1-4, 4-11) [I-431] was 1.32 µM; that for Ac-[αAllylPro]DA[B5(4)]DEAAFN[S8]F[Bta]-NH2 (staple 1-4, 4-11) [I-432] was 0.145 µM. On the same count and under the same terms, with Ac-[αAllylPro]DA[B5(4)]DEAA[3Thi]Q[S8][Phe(3-F)][Bta]H-NH2 (staple 1-4, 4-11) [I-430] the figure was 0.154 µM; with Ac-[αAllylPro]DA[B5(4)]DEAAFQ[S8][3Thi][Bta]Q-NH2 (staple 1-4, 4-11; also: staple isomer composition, later-eluting HPLC peak) [I-427], 0.0385 µM; with Ac-[αAllylPro]DA[B5(4)]DEAAFQ[S8][2Thi][Bta]Q-NH2 (staple 1-4, 4-11) [I-428], 0.06 µM. The same measure, in the same setting: with Ac-[αAllylPro]DI[B5(3)]DEAA[2Thi]Q[S8][Phe(3-F)][Bta]Q-NH2 (staple 1-4, 4-11) [I-412] the figure was 0.092 µM; with Ac-[αAllylPro][Ala(1H-tetrazol-5-yl)]A[B5(3)]DEAAFQ[S8]F[Bta]Q-NH2 (staple 1-4, 4-11; also: staple isomer composition, later eluting HPLC peak) [I-417], 5 µM.

For the next assay the target is unchanged. As to the kind of experiment: fluorescence polarization competition; full-length beta-catenin; competitor displaced: 5FAM-TCF4 10-53.
Target sequence in this assay (P35222 2-781 limits assumed): as above
Ac-[αAllylPro]D[tBuAla][B5(4)]DEAAFN[S8][3Thi][Bta]Q-NH2 (staple 1-4, 4-11; not fully specified) [I-682] had an IC50 of 0.041 µM.

Another assay shares this target. The experiment in a line: fluorescence polarization competition; peptide displaces 5FAM-TCF4(10-53) from full-length beta-catenin.
Target sequence in this assay (P35222 2-781 limits assumed): as above
Molecule Ac-[αAllylPro]D[tBuAla][B5(13)]DDAAFN[SeN][3Thi][Bta]H-NH2 (staple 1-4, 4-11) [I-774] gave a half-inhibitory concentration (IC50) of 0.038 µM.

The molecule Ac-[αAllylPro]D[tBuAla][B5(13)]DDAAFN[PyrS2][2Thi][Bta]H-NH2 (staple 1-4, 4-11) [I-779] returned an IC50 of 0.005 µM. The same measure, in the same setting: the value for Ac-[αAllylPro]D[tBuAla][B5(13)]DDAAFN[PyrS3][3Thi][Bta]H-NH2 (staple 1-4, 4-11) [I-776] was 0.005 µM. The molecule Ac-[αAllylPro]D[tBuAla][B5(13)]DDAAFN[SeN][3Thi][Bta]H-NH2 (staple 1-4, 4-11) [I-773] displayed an IC50 of 0.167 µM.

Values taken from patent publication US20240116985A1, “STAPLED PEPTIDES AND METHODS THEREOF” (priority 2020, published 2024).
